Measurements as given in patent US20250339501A1, “COMPOSITIONS AND METHODS FOR TREATING METABOLIC DISEASE” (The Regents of the University of California, priority 2021, published 2025).
Entries after “also recorded” stand apart in the source; their conditions may differ. Read-outs that look alike come from different tables or passages of the source.

How the values were obtained:
C57BL/6J mice = assay: Plasma Dj1 after intramuscular CTX injection; format: in vivo, mouse; conditions: 2 days post intramuscular administration
Method: (§1) Mouse serum Dj1 and CK were measured by mouse Park7/DJ-1 DuoSet ELISA (DY8136, R&D systems) and mouse CKMB/Creatine Kinase MB ELISA Kit (LS-F5745, LSBio) respectively. Mouse Serum AST and ALT were measured by AST activity assay kit (Sigma, MAK055) and ALT activity assay kit (Sigma, MAK052) respectively.
Cardiotoxin (CTX) induces skeletal muscle injury and regeneration. To further validate the effect of muscle injury on circulating Dj1, C57BL/6J mice were injected intramuscularly with CTX, and plasma Dj1 levels were measured 2 days post-administration.

C2C12 myotubes = assay: Dj1 release from muscle cells into culture medium; format: cell-based, mouse; conditions: for protein level of Dj1 in the media: C2C12 myotubes with or without CCCP, Tg; for muscle cell release of Dj1: in vitro (C2C12 myotubes) and ex vivo muscle
Method: Seeded cells were cultured in 6-well plates for 24 hours prior to transfection. Transfections were performed using Lipofectamine 2000 and PLUS reagent according to manufacturer instructions (Invitrogen, Carlsbad, CA). Human HepG2 cells were cultured in DMEM/low media containing 10% fetal bovine serum with penicillin/streptomycin. Mouse AML12 cells were maintained in DMEM/F12, ITS supplement (Gibco, USA), 40 ng/ml dexamethasone, and 10% fetal bovine serum with penicillin/streptomycin.
An adenovirus encoding mouse Dj1 was generated using the ViraPower Adenoviral Expression System (Invitrogen) according to manufacturer instructions. […] Entry clones were obtained by recombination of the purified DNA fragment with the pDONR221 vector using Gateway BP clonase II. Mouse Dj1 insert was transferred from the entry clones into the pAd/CMV/V5-DEST vector (Invitrogen) using the Gateway LR Clonase II enzyme mix. The recombinant adenoviral purified plasmid was used to generate adenoviral particles according to the manufacturer's instructions (Invitrogen). Adenoviral titer was determined using the AdenoX Rapid Titer Kit (Clontech).
(§2) Mouse tissue and cell samples were pulverized in liquid nitrogen and homogenized in RIPA lysis buffer containing complete EDTA-Free protease (Roche) and Phosphatase Inhibitor Cocktail 2 (Sigma-Aldrich, St. Louis, MO). All lysates were centrifuged, clarified, and resolved by SDS-PAGE. […] Densitometric analyses were performed using BioRad Quantity One image software (Bio-Rad, Hercules, CA).
as §1
Strenuous exercise increases the endoplasmic reticulum (ER) stress, which at an excessive level can lead to muscle damage (12). […] To determine the mechanisms that drive skeletal muscle releases of Dj1, ER stress markers were examined in skeletal muscles of the three different mouse models described above. […] To further validate muscle cells release of Dj1, in vitro studies were assessed.
(§3) Extracellular vesicles are cell-derived membranous structures including exosomes and microvesicles bodies, which are enriched with proteins, lipids, DNA, and RNA (14). To examine whether Dj1 is released through the extracellular vesicle system, Dj1 levels were determined in the culture media of C2C12 myotubes that were treated with or without CCCP, Tg, exosome generation inhibitor GW4869, or exocytosis inhibitor Exo1. […] To visualize the release of Dj1 from muscle cells, time-lapse imaging was performed on C2C12 myocytes transfected with Dj1-GFP. […] To further determine which types of extracellular vesicles were enriched with Dj1, microvesicle bodies (MVBs) and exosomes from C2C12 culture media and CTX-treated mouse plasma were separated by differential centrifugation.

C2C12 myocytes = assay: Time-lapse imaging of Dj1-GFP transfected C2C12 myocytes; format: cell-based, mouse
Method: Before image analysis, raw .czi files were automatically processed into deconvoluted Airyscan images using Zen software. Time-lapse images were acquired at approximately 1 frame/second.
as §3

cleaved caspase 3 = conditions: C2C12 myocytes
Method: as §2

NASH diet-fed mice = assay: tDj1 administration in NASH diet-fed mice
Method: Animals were weaned 21 days after birth and had free access to food and water and were housed on 12 h light-dark cycle. C57BL/6J males were introduced to a normal diet (NC, Research Diets D15100601) or high-fat diet (HFD, Research Diets D12331), and maintained on a diet for the indicated time. […] NASH model mice were fed for up to 28 weeks with the NASH diet (Envigo, TD.120528) and 42% fructose (Sigma, F0127) in the water (1,2). […] Mice were raised in microisolator cages with a 12 h: 12 h light: dark cycle. All procedures were performed in accordance with the Guide for Care and Use of Laboratory Animals of the National Institutes of Health, and were approved by the Animal Subjects Committee of the University of California, Los Angeles.

JNK [1] = assay: Anisomycin-induced JNK phosphorylation in AML12 cells; format: cell-based; conditions: mouse AML12 liver cells
Source text: (§4) As described above, Dj1 administration stimulates AMPK phosphorylation in the liver cells. However, elevated AMPK phosphorylation in vivo was not observed (data not shown). Numerous studies have reported that the c-Jun N terminal kinase (JNK) is critical to the development of steatosis and chronic liver injury in NAFLD (22-25). […] However, not all MAPK pathways were activated. For example, phosphorylation of p42 was not altered by tDj1 treatment (FIG. 6O). Both rDj1 and tDj1 suppressed TNFα and Anisomycin-induced JNK (p54 and p46) phosphorylation in human HepG2 and mouse AML12 liver cells, respectively (FIGS. 6C-6D).

HFD-fed mice = assay: rDj1 or tDj1 intravenous every other day for 14 days in HFD-fed mice; format: in vivo, mouse
Method: C57BL/10cSn-Dmd^mdx/J (001801, mdx) and C57BL/10ScSnJ (000476, WT) mice were ordered directly from The Jackson Laboratory. Different ages of mdx and WT mice were obtained. Animals were weaned 21 days after birth and had free access to food and water and were housed on 12 h light-dark cycle. C57BL/6J males were introduced to a normal diet (NC, Research Diets D15100601) or high-fat diet (HFD, Research Diets D12331), and maintained on a diet for the indicated time. The HFD diet derives 58% of its kilocalories (kcal) from fat (soybean and coconut oil), 25.5% from carbohydrates (sucrose and maltodextrin), and 16.4% from protein (casein). NASH model mice were fed for up to 28 weeks with the NASH diet (Envigo, TD.120528) and 42% fructose (Sigma, F0127) in the water (1,2). The NASH diet is composed of 405.36 g/Kg sucrose and 12.5 g/Kg cholesterol. Recombinant mouse Dj1 protein (Novus, NBP2-59523) or truncated mouse Dj1 (tDj1, GenScript) protein was intravenously injected every day for 5 days or every other day for 2 weeks. Skeletal muscle-specific Park7 knockout mice were generated by crossing Park7 flox mice with Myl1-cre mice (JAX, #024713). Mice were raised in microisolator cages with a 12 h: 12 h light: dark cycle. All procedures were performed in accordance with the Guide for Care and Use of Laboratory Animals of the National Institutes of Health, and were approved by the Animal Subjects Committee of the University of California, Los Angeles.
Cryosections (10-μm thick transverse sections of frozen muscle cut in a cryostat (Leica) at −20° C.) were subjected to hematoxylin & eosin (H&E) staining (10, 54). Liver tissues were fixed in phosphate-buffered 10% formalin and embedded in paraffin wax. Sections were cut and stained with H&E.
as §1
Plasma and liver NEFA, Cholesterol, and Triglyceride were analyzed by their respective kits (FUJIFILM Wako Diagnostics)
About 80 mg of liver samples were homogenized and sonicated in PBS (pH 7.4) for lipid extraction. An internal standard mixture (ISTD) and CHCl3:methanol (2:1) were added to the samples before being vortexed, mixed, sonicated, and centrifuged. The supernatant containing the lipid was removed and dried, the lipids were resuspended in ethanol and then sonicated.
(§5) Dj1 is a highly conserved protein that is ubiquitously expressed in most mammalian tissues. It belongs to the Dj1/ThiJ/PfpI family chaperones, and its expression is induced by oxidative stress (20,21). To determine whether the PfpI domain of Dj1 exerts a similar role as the full-length Dj1 protein (rDj1) in liver cells, truncated Dj1 (tDj1) comprising of only the PfpI domain was purified (FIG. 5O). HFD-fed mice were intravenous injected with rDj1 or tDj1 every other day for 14 days.

p38 = p38 phosphorylation immunoblot in liver of HFD-fed mice; format: in vivo, mouse
Source text: as §4

ASK1 = ASK1 phosphorylation immunoblot, in vitro and in liver of HFD-fed mice; design: species or system mouse; conditions: in vitro and in vivo; liver of HFD-fed WT mice
Source text: A wide variety of mechanisms activate the JNK pathway. […] Moreover, ASK1 is activated by various stresses, including oxidative stress, ER stress, calcium overload, and receptor-mediated inflammatory signals such as TNFα and lipopolysaccharide (LPS) (26,27). rDj1 administration suppressed both baseline and TNFα-induced ROS levels in HepG2 cells, which may contribute to reducing liver inflammation (FIG. 6F).

JNK [2] = assay: JNK phosphorylation immunoblot in liver of HFD-fed mice; format: in vivo, mouse
Source text: as §4

AML12 cells = assay: TG and NEFA content in palmitate acid-treated AML12 cells; format: cell-based, mouse
Method: Mouse myoblast cells (C2C12) were maintained in high glucose DMEM/high, 10% fetal bovine serum with penicillin/streptomycin. pRK5-Dj1-HA plasmid was purchased from Addgene (#29396). Seeded cells were cultured in 6-well plates for 24 hours prior to transfection. Transfections were performed using Lipofectamine 2000 and PLUS reagent according to manufacturer instructions (Invitrogen, Carlsbad, CA). Human HepG2 cells were cultured in DMEM/low media containing 10% fetal bovine serum with penicillin/streptomycin. Mouse AML12 cells were maintained in DMEM/F12, ITS supplement (Gibco, USA), 40 ng/ml dexamethasone, and 10% fetal bovine serum with penicillin/streptomycin. For in vitro experiments, HepG2 cells were treated with or without recombinant human Dj1 protein (Novus, NBC1-18334) in serum-free media containing 25 mM glucose, 200 μM palmitic acid, and 0.25% bovine serum albumin for an indicated time.
as §5

p42 = p42 phosphorylation immunoblot in liver of HFD-fed mice; format: in vivo, mouse
Source text: as §4

Cardiotoxin [CTX]
Dj1 in the plasma (C57BL/6J mice): increase

COC(=O)c1ccccc1NC(=O)c1ccc(F)cc1 [Exo1]
protein level of Dj1 in the media (C2C12 myotubes): significantly reduced

carbonyl cyanide m-chlorophenyl hydrazine [CCCP]
Dj1 levels in the culture medium (C2C12 myotubes; C2C12 myocytes / myotubes): elevated | HA-Dj1 levels in the media (C2C12 myotubes; C2C12 myocytes transfected with HA-tagged Dj1): elevated | muscle cell release of Dj1 (C2C12 myotubes): release Dj1 | budding of vesicles from cells (C2C12 myocytes): Robust budding of vesicles | protein level of cleaved caspase 3 (cleaved caspase 3): did not alter

O=C(/C=C/c1ccc(/C=C/C(=O)Nc2ccc(C3=NCCN3)cc2)cc1)Nc1ccc(C2=NCCN2)cc1 [GW4869]
protein level of Dj1 in the media (C2C12 myotubes): significantly reduced

C/C=C(/C)C(=O)O[C@H]1C(C)=C2[C@H]([C@@H]1OC(=O)CCCCCCC)[C@@](C)(OC(C)=O)C[C@H](OC(=O)CCC)[C@@]1(O)[C@H]2OC(=O)[C@@]1(C)O [Thapsigargin]
muscle cell release of Dj1 (C2C12 myotubes): release Dj1 | budding of vesicles from cells (C2C12 myocytes; Dj1-GFP transfected C2C12 myocytes, time-lapse imaging): Robust budding of vesicles

B1: tDj1: truncated mouse Dj1 comprising only the PfpI domain, residues 32-173 per b12, SEQ ID NO: 3 (GenScript) (protein, listed as Mus musculus)
chain: KVTVAGLAGKDPVQCSRDVMICPDTSLEDAKTQGPYDVVVLPGGNLGAQNLSESPMVKEILKEQESRKGLIAAICAGPTALLAHEVGFGCKVTTHPLAKDKMMNGSHYSYSESRVEKDGLILTSRGPGTSFEFALAIVE
TG levels in the liver (NASH diet-fed mice; NASH diet-fed mice): did not considerably reduce | fibrosis scores (NASH diet-fed mice; NASH diet-fed mice): significantly reduced | hepatic apoptosis (TUNEL assay) (NASH diet-fed mice; NASH diet-fed mice): suppressed | liver ALT activity (NASH diet-fed mice; NASH diet-fed mice): robustly reduced | total cholesterol level in the liver (NASH diet-fed mice; NASH diet-fed mice): significantly suppressed | inflammatory gene expression (NASH diet-fed mice; liver of NASH diet-fed mice): significantly reduced | liver fibrosis gene expression (NASH diet-fed mice; liver of NASH diet-fed mice): significantly reduced | protein levels of apoptosis markers (cleaved caspase 3, cleaved caspase 8, cleaved caspase 9, cleaved PARP) (NASH diet-fed mice; liver of NASH diet-fed mice): decreased | body weight (NASH diet-fed mice; mice on NASH diet for 28 weeks): significantly reduced | glucose tolerance (NASH diet-fed mice; mice on NASH diet for 28 weeks): improved | insulin tolerance (NASH diet-fed mice; mice on NASH diet for 28 weeks): improved | Anisomycin-induced JNK (p54 and p46) phosphorylation (JNK [1]): suppressed; also recorded: inhibits | level of TG in the liver (HFD-fed mice): significantly reduced | liver histology, lipid accumulation (HFD-fed mice): less lipid accumulation | plasma ALT levels (HFD-fed mice): reducing | plasma AST levels (HFD-fed mice): reducing | p38 phosphorylation (p38): decreased | phosphorylation of apoptosis signal-regulating kinase 1 (ASK1) (ASK1): reduced; also recorded: inhibits | JNK (p46 subunit) phosphorylation (JNK [2]): significantly reduced | TG levels (AML12 cells): reduced | phosphorylation of p42 (p42): not altered
